Experimental data taken from PMC7568252, “Recombinant expression of an L‐amino acid oxidase from the fungus Hebeloma cylindrosporum in Pichia pastoris including fermentation” (MicrobiologyOpen, 2020).

Key:
Assay in all cases: purified protein
Details in all cases: untreated (not acid-activated) enzyme, 50 mM TEA/HCl pH 7.0, 30°C
purified protein [1] = substrate: NC(=O)CC[C@H](N)C(=O)O
purified protein [2] = substrate: COC(=O)[C@@H](N)CC(C)C
purified protein [3] = substrate: CC(C)C[C@H](N)C(=O)O
purified protein [4] = substrate: N[C@@H](Cc1ccccc1)C(=O)O
purified protein [5] = substrate: CSCC[C@H](N)C(=O)O

B1: 9-hcLAAO4 (9His-hcLAAO4) (Hebeloma cylindrosporum) (protein)
chain: ADTTSVPFDAESRDQIFQHHARSVISGYTNTLGEKNISVPSSPPGGERVGILGAGIGGLYSALILQSLDVPFEIIEASNRVGGRLFTHKFPNGGKYDYYDVGAMRYPLPKSDDKGNYQPGVMQRVGQLFTYLGMHKQLIPYYFKSNKSPGFQYFNGVRARIGEGSSFDAPALGINSSLIDIGVTKIVNDAVGPFAQALFDDLQKHTTTGWDDMMKNDAYSTRSYFSFKYLPSPSFGLPSEHFSTRVINWLETFDKSTGWYDRGLTETVLEAIAFGEVGDGEVDWRCIDGGSHVLPDTIAAFLHKKGGNAFVMNASVTAIGLENPNKEDSPMVVVAGGQKRKYSHVISTLPLPVLRTVDLKNSKLDIVQSNALRKLQYGPSIKIGILFKEPWWTTGQDKNGEKFDLVGGQSYTDLPIRTVVYPSYGVNTNAPSNTLIASYCWTNDAERMGSLIGTGKKTYEEQLEHLVLSNLAAVHNTDYQYLKDRLVDVHSWDWNHNPLTMGAFAFFGPGDFQDLYTSLNRPAANGKLHFAGEALSVRHAWVVGALDSAWRAVYNYLYVTDPAKLPKFFELWGKNAEWFEQPGDGKEPNSDNSLLEKFVRRTHGTVSV
- Km (purified protein [1]): 510 ± 110 µM
- Vmax (purified protein [1]): 8.87 µmol/min/mg
- Km (purified protein [2]): 3010 ± 680 µM
- Vmax (purified protein [2]): 8.41 µmol/min/mg
- Km (purified protein [3]): 40 ± 40 µM
- Vmax (purified protein [3]): 7.67 µmol/min/mg
- Km (purified protein [4]): 70 ± 70 µM
- Vmax (purified protein [4]): 3.25 µmol/min/mg
- Km (purified protein [5]): 160 ± 100 µM
- Vmax (purified protein [5]): 5.98 µmol/min/mg
